Assay results from US12594347B2, “Nanoparticulate drug delivery systems” (Duke University, priority 2018, dated 2026).
“And” between values parts separate entries of the source, which are not always exact repeats. Equal entries are not always repeated.

Legend:
Canine pharmacokinetics = conditions: dogs
Excerpt: Canine pharmacokinetics and toxicities. […] All procedures and protocols involving care, handling, and dosing for this study were reviewed and approved by the Institutional Animal Care and Use Committee (IACUC) at North Carolina State University College of Veterinary Medicine, which is an AAALAC-accredited facility. The animals' health status were monitored daily by the animal technicians and veterinary staff, paying particular attention for signs of gastrointestinal toxicities including vomiting, diarrhea, lethargy, and inappetence. If noted, supportive care was provided. […] 2 mL blood samples were drawn from jugular vein at 40 s, 15 and 30 min, 2, 4, 8, 24, 48, and 72 h after injection, diluted into 400 μL heparinized PBS (1000 UmL^−1). Sample processing and analysis were performed as with murine pharmacokinetics studies.

[1] = Canine serum chemistry one week after administration; type: in vivo, dogs (beagles and hounds); conditions: dogs
Excerpt: Canine pharmacokinetics and toxicities. […] If noted, supportive care was provided.

[2] = cephalic vein, 27 DOX Equiv/m^−2 BSA or 0.9 mg DOX Equiv/kg BW
[3] = one week after administration, individual subjects

B1: ABDN-CP-DOX (conjugate)
chain: LAEAKVLANRELDKYGVSDYYKNLINNAKTVEGVKALIDEILAALPVPGAGVPGAGVPGAGVPGAGVPGAGVPGAGVPGAGVPGAGVPGAGVPGAGVPGAGVPGAGVPGAGVPGAGVPGAGVPGAGVPGAGVPGAGVPGAGVPGAGVPGAGVPGAGVPGAGVPGAGVPGAGVPGAGVPGAGVPGAGVPGAGVPGAGVPGAGVPGAGVPGAGVPGAGVPGAGVPGAGVPGAGVPGAGVPGAGVPGAGVPGAGVPGAGVPGAGVPGAGVPGAGVPGAGVPGAGVPGAGVPGAGVPGAGVPGAGVPGAGVPGAGVPGAGVPGAGVPGAGVPGAGVPGAGVPGAGVPGAGVPGAGVPGAGVPGAGVPGAGVPGAGVPGAGVPGAGVPGAGVPGAGVPGAGVPGAGVPGAGVPGAGVPGAGVPGAGVPGAGVPGAGVPGAGVPGAGVPGAGVPGAGVPGAGVPGAGVPGAGVPGAGVPGAGVPGAGVPGAGVPGAGVPGAGVPGAGVPGAGVPGAGVPGAGVPGAGVPGAGVPGAGVPGAGVPGAGVPGAGVPGAGVPGAGVPGAGVPGAGVPGAGVPGAGVPGAGVPGAGVPGAGVPGAGVPGAGVPGAGVPGAGVPGAGVPGAGVPGAGVPGAGVPGAGVPGAGVPGAGVPGAGVPGAGVPGAGVPGAGVPGAGVPGAGVPGAGVPGAGVPGAGVPGAGVPGAGVPGAGVPGAGVPGAGVPGAGVPGAGVPGAGVPGAGVPGAGVPGAGVPGAGVPGAGVPGAGCGGCGGCGGCGGCGGCGGCGGCGG
With B1 as the molecule, how does the “AUC, fold larger than that of CP-DOX” value (Canine pharmacokinetics) read?
Its value is “six-fold”.

And the “plasma half-life, fold greater than that of CP-DOX” value (Canine pharmacokinetics)?
The value was “three-fold”.

And the “Apparent distribution volume VD” value (Canine pharmacokinetics; [2])?
The value was 0.02 ± 0.00 mL/g.

And the “Distribution half-life β t1/2” value (Canine pharmacokinetics; [2])?
Its value is 102.3 ± 49.3 min.

What about the “Elimination rate constant kg” value (Canine pharmacokinetics; [2]) of the same molecule?
The value was 0.02 ± 0.00 h⁻¹.

What about the “Plasma clearance CL” value (Canine pharmacokinetics; [2]) of the same molecule?
Its value is 0.0003 ± 0.0000 mL/h/g.

And the “Plasma to tissue rate constant kpt” value (Canine pharmacokinetics; [2])?
Its value is 0.06 ± 0.03 h⁻¹.

What about the “Tissue to plasma rate constant ktp” value (Canine pharmacokinetics; [2]) of the same molecule?
The value was 0.34 ± 0.17 h⁻¹.

And the “Elimination half-life α t1/2” value (Canine pharmacokinetics; cephalic vein, 27 DOX Equiv/m^−2 BSA or 0.9 mg DOX Equiv/kg BW, plasma DOX)?
Its value is 30.8 ± 2.0 h.

And the ALT [1, 3]?
The ALT was 18 IU/L and 21 IU/L.

What about the AST [1, 3] of the same molecule?
Its AST is 20 IU/L and 31 IU/L.

What about the “Alb/Glob Ratio” value [1, 3] of the same molecule?
Its value is 1.73 and 1.57.

What about the Albumin [1, 3] of the same molecule?
Its Albumin is 3.8 g/dL and 3.6 g/dL.

And the “Alkaline Phosphatase” value [1, 3]?
Its value is 26 IU/L and 31 IU/L.

And the Amylase [1, 3]?
The Amylase was 597 IU/L and 677 IU/L.

And the “Anion Gap” value [1, 3]?
Its value is 21 and 20.4.

And the Bicarbonate [1, 3]?
The Bicarbonate was 22 mmol/L and 21 mmol/L.

And the Bilirubin-Total [1, 3]?
Its Bilirubin-Total is <0.2 mg/dL.

And the CK [1, 3]?
The CK was 141 IU/L and 296 IU/L.

And the Calcium [1, 3]?
The Calcium was 10.3 mg/dL and 10.7 mg/dL.

What about the Chloride [1, 3] of the same molecule?
Its Chloride is 109 mmol/L and 111 mmol/L.

And the Cholesterol [1, 3]?
The Cholesterol was 153 mg/dL and 94 mg/dL.

What about the Creatinine [1, 3] of the same molecule?
The Creatinine was 0.7 mg/dL.

What about the GGT [1, 3] of the same molecule?
The GGT was <3 IU/L.

And the Globulin [1, 3]?
The Globulin was 2.2 g/dL and 2.3 g/dL.

And the Glucose [1, 3]?
The Glucose was 90 mg/dL and 82 mg/dL.

What about the Lipase [1, 3] of the same molecule?
The Lipase was 57 IU/L.

And the Magnesium [1, 3]?
The Magnesium was 1.9 mg/dL and 2.2 mg/dL.

What about the “Na/K Ratio” value [1, 3] of the same molecule?
The value was 37 and 33.6.

What about the Osomolality-Calc. [1, 3] of the same molecule?
Its Osomolality-Calc. is 293.8 mOsm/kg and 293.4 mOsm/kg.

What about the Phosphorus [1, 3] of the same molecule?
The Phosphorus was 4.1 mg/dL and 4.7 mg/dL.

What about the Potassium [1, 3] of the same molecule?
The Potassium was 4 mmol/L and 4.4 mmol/L.

And the Protein-Total [1, 3]?
Its Protein-Total is 6 g/dL and 5.9 g/dL.

What about the Sodium [1, 3] of the same molecule?
Its Sodium is 148 mmol/L.

What about the “Urea Nitrogen” value [1, 3] of the same molecule?
The value was 17 mg/dL and 15 mg/dL.

And the “abnormalities in blood serum chemistry (in words)” value ([1]; one week after infusion)?
Its value is “no hematology or serum chemistry abnormalities”.
